Non-standard residues stand in square brackets, D forms with d. Dab = NCC[C@H](N)C(=O)O; Aib = CC(C)(N)C(=O)O
B1: Compound 11 (peptide)
peptide: H-HSQGTFTSDLSKYLDSARAEDFVKWLEST-OH
B2: Compound 20 (peptide)
peptide: H-HAQGTFTSDYSKYLD[Aib]ARAESFVKWLEST-OH
SMILES: CC(C)C[C@H](NC(=O)[C@H](Cc1c[nH]c2ccccc12)NC(=O)[C@H](CCCCN)NC(=O)[C@@H](NC(=O)[C@H](Cc1ccccc1)NC(=O)[C@H](CO)NC(=O)[C@H](CCC(=O)O)NC(=O)[C@H](C)NC(=O)[C@H](CCCNC(=N)N)NC(=O)[C@H](C)NC(=O)C(C)(C)NC(=O)[C@H](CC(=O)O)NC(=O)[C@H](CC(C)C)NC(=O)[C@H](Cc1ccc(O)cc1)NC(=O)[C@H](CCCCN)NC(=O)[C@H](CO)NC(=O)[C@H](Cc1ccc(O)cc1)NC(=O)[C@H](CC(=O)O)NC(=O)[C@H](CO)NC(=O)[C@@H](NC(=O)[C@H](Cc1ccccc1)NC(=O)[C@@H](NC(=O)CNC(=O)[C@H](CCC(N)=O)NC(=O)[C@H](C)NC(=O)[C@@H](N)Cc1c[nH]cn1)[C@@H](C)O)[C@@H](C)O)C(C)C)C(=O)N[C@@H](CCC(=O)O)C(=O)N[C@@H](CO)C(=O)N[C@H](C(=O)O)[C@@H](C)O
B3: Compound 12 (peptide)
peptide: H-HSQGTFTSDYSKYLD[Aib]ARAEDFVKWLEST-OH
SMILES: CC(C)C[C@H](NC(=O)[C@H](Cc1c[nH]c2ccccc12)NC(=O)[C@H](CCCCN)NC(=O)[C@@H](NC(=O)[C@H](Cc1ccccc1)NC(=O)[C@H](CC(=O)O)NC(=O)[C@H](CCC(=O)O)NC(=O)[C@H](C)NC(=O)[C@H](CCCNC(=N)N)NC(=O)[C@H](C)NC(=O)C(C)(C)NC(=O)[C@H](CC(=O)O)NC(=O)[C@H](CC(C)C)NC(=O)[C@H](Cc1ccc(O)cc1)NC(=O)[C@H](CCCCN)NC(=O)[C@H](CO)NC(=O)[C@H](Cc1ccc(O)cc1)NC(=O)[C@H](CC(=O)O)NC(=O)[C@H](CO)NC(=O)[C@@H](NC(=O)[C@H](Cc1ccccc1)NC(=O)[C@@H](NC(=O)CNC(=O)[C@H](CCC(N)=O)NC(=O)[C@H](CO)NC(=O)[C@@H](N)Cc1c[nH]cn1)[C@@H](C)O)[C@@H](C)O)C(C)C)C(=O)N[C@@H](CCC(=O)O)C(=O)N[C@@H](CO)C(=O)N[C@H](C(=O)O)[C@@H](C)O
B4: Compound 27 (peptide)
peptide: H-HSQGTFTSDYSKYLDEARAKSFVEWLEKT-OH
B5: Compound 10 (peptide)
peptide: H-HSQGTFTSDYSKYLDSARAEDFVSWLEST-OH
B6: Compound 22 (peptide)
peptide: H-HSQ[dA]TFTSDYSKYLD[Aib]ARAESFVKWLEST-OH
SMILES: CC(C)C[C@H](NC(=O)[C@H](Cc1c[nH]c2ccccc12)NC(=O)[C@H](CCCCN)NC(=O)[C@@H](NC(=O)[C@H](Cc1ccccc1)NC(=O)[C@H](CO)NC(=O)[C@H](CCC(=O)O)NC(=O)[C@H](C)NC(=O)[C@H](CCCNC(=N)N)NC(=O)[C@H](C)NC(=O)C(C)(C)NC(=O)[C@H](CC(=O)O)NC(=O)[C@H](CC(C)C)NC(=O)[C@H](Cc1ccc(O)cc1)NC(=O)[C@H](CCCCN)NC(=O)[C@H](CO)NC(=O)[C@H](Cc1ccc(O)cc1)NC(=O)[C@H](CC(=O)O)NC(=O)[C@H](CO)NC(=O)[C@@H](NC(=O)[C@H](Cc1ccccc1)NC(=O)[C@@H](NC(=O)[C@@H](C)NC(=O)[C@H](CCC(N)=O)NC(=O)[C@H](CO)NC(=O)[C@@H](N)Cc1c[nH]cn1)[C@@H](C)O)[C@@H](C)O)C(C)C)C(=O)N[C@@H](CCC(=O)O)C(=O)N[C@@H](CO)C(=O)N[C@H](C(=O)O)[C@@H](C)O
B7: Compound 19 (peptide)
peptide: H-HSQGTFTSDYSKYLDVARAESFVKWLEST-OH
B8: Compound 16 (peptide)
peptide: H-HSQGTFTSDYSKYLESARAESFVKWLEST-OH
B9: Compound 25 (peptide)
peptide: H-HSQGTFTSDYSKYLD[Aib]RRAESFVKWLEST-OH
SMILES: CC(C)C[C@H](NC(=O)[C@H](Cc1c[nH]c2ccccc12)NC(=O)[C@H](CCCCN)NC(=O)[C@@H](NC(=O)[C@H](Cc1ccccc1)NC(=O)[C@H](CO)NC(=O)[C@H](CCC(=O)O)NC(=O)[C@H](C)NC(=O)[C@H](CCCNC(=N)N)NC(=O)[C@H](CCCNC(=N)N)NC(=O)C(C)(C)NC(=O)[C@H](CC(=O)O)NC(=O)[C@H](CC(C)C)NC(=O)[C@H](Cc1ccc(O)cc1)NC(=O)[C@H](CCCCN)NC(=O)[C@H](CO)NC(=O)[C@H](Cc1ccc(O)cc1)NC(=O)[C@H](CC(=O)O)NC(=O)[C@H](CO)NC(=O)[C@@H](NC(=O)[C@H](Cc1ccccc1)NC(=O)[C@@H](NC(=O)CNC(=O)[C@H](CCC(N)=O)NC(=O)[C@H](CO)NC(=O)[C@@H](N)Cc1c[nH]cn1)[C@@H](C)O)[C@@H](C)O)C(C)C)C(=O)N[C@@H](CCC(=O)O)C(=O)N[C@@H](CO)C(=O)N[C@H](C(=O)O)[C@@H](C)O
B10: Compound 1 (peptide)
peptide: H-HSQGTFTSDYSKYLDSARAESFVKWLEST-OH
B11: Compound 23 (peptide)
peptide: H-HSQGTFTSDVSKYLD[Aib]ARAESFVKWLEST-OH
SMILES: CC(C)C[C@H](NC(=O)[C@H](Cc1c[nH]c2ccccc12)NC(=O)[C@H](CCCCN)NC(=O)[C@@H](NC(=O)[C@H](Cc1ccccc1)NC(=O)[C@H](CO)NC(=O)[C@H](CCC(=O)O)NC(=O)[C@H](C)NC(=O)[C@H](CCCNC(=N)N)NC(=O)[C@H](C)NC(=O)C(C)(C)NC(=O)[C@H](CC(=O)O)NC(=O)[C@H](CC(C)C)NC(=O)[C@H](Cc1ccc(O)cc1)NC(=O)[C@H](CCCCN)NC(=O)[C@H](CO)NC(=O)[C@@H](NC(=O)[C@H](CC(=O)O)NC(=O)[C@H](CO)NC(=O)[C@@H](NC(=O)[C@H](Cc1ccccc1)NC(=O)[C@@H](NC(=O)CNC(=O)[C@H](CCC(N)=O)NC(=O)[C@H](CO)NC(=O)[C@@H](N)Cc1c[nH]cn1)[C@@H](C)O)[C@@H](C)O)C(C)C)C(C)C)C(=O)N[C@@H](CCC(=O)O)C(=O)N[C@@H](CO)C(=O)N[C@H](C(=O)O)[C@@H](C)O
B12: Compound 17 (peptide)
peptide: H-HSQGTFTSDYSKYLDLARAEDFVKWLEST-OH
B13: Compound 24 (peptide)
peptide: H-HS[Dab](Ac)GTFTSDYSKYLD[Aib]ARAESFVKWLEST-NH2
SMILES: CC(=O)NCC[C@H](NC(=O)[C@H](CO)NC(=O)[C@@H](N)Cc1c[nH]cn1)C(=O)NCC(=O)N[C@H](C(=O)N[C@@H](Cc1ccccc1)C(=O)N[C@H](C(=O)N[C@@H](CO)C(=O)N[C@@H](CC(=O)O)C(=O)N[C@@H](Cc1ccc(O)cc1)C(=O)N[C@@H](CO)C(=O)N[C@@H](CCCCN)C(=O)N[C@@H](Cc1ccc(O)cc1)C(=O)N[C@@H](CC(C)C)C(=O)N[C@@H](CC(=O)O)C(=O)NC(C)(C)C(=O)N[C@@H](C)C(=O)N[C@@H](CCCNC(=N)N)C(=O)N[C@@H](C)C(=O)N[C@@H](CCC(=O)O)C(=O)N[C@@H](CO)C(=O)N[C@@H](Cc1ccccc1)C(=O)N[C@H](C(=O)N[C@@H](CCCCN)C(=O)N[C@@H](Cc1c[nH]c2ccccc12)C(=O)N[C@@H](CC(C)C)C(=O)N[C@@H](CCC(=O)O)C(=O)N[C@@H](CO)C(=O)N[C@H](C(N)=O)[C@@H](C)O)C(C)C)[C@@H](C)O)[C@@H](C)O
B14: Compound 9 (peptide)
peptide: H-HSQGTFTSDYSKYLDSARAEEFVKWLEST-OH
B15: Compound 15 (peptide)
peptide: H-HSQGTFTSDYSKYLD[Aib]ARAESFVKWLEST-OH
SMILES: CC(C)C[C@H](NC(=O)[C@H](Cc1c[nH]c2ccccc12)NC(=O)[C@H](CCCCN)NC(=O)[C@@H](NC(=O)[C@H](Cc1ccccc1)NC(=O)[C@H](CO)NC(=O)[C@H](CCC(=O)O)NC(=O)[C@H](C)NC(=O)[C@H](CCCNC(=N)N)NC(=O)[C@H](C)NC(=O)C(C)(C)NC(=O)[C@H](CC(=O)O)NC(=O)[C@H](CC(C)C)NC(=O)[C@H](Cc1ccc(O)cc1)NC(=O)[C@H](CCCCN)NC(=O)[C@H](CO)NC(=O)[C@H](Cc1ccc(O)cc1)NC(=O)[C@H](CC(=O)O)NC(=O)[C@H](CO)NC(=O)[C@@H](NC(=O)[C@H](Cc1ccccc1)NC(=O)[C@@H](NC(=O)CNC(=O)[C@H](CCC(N)=O)NC(=O)[C@H](CO)NC(=O)[C@@H](N)Cc1c[nH]cn1)[C@@H](C)O)[C@@H](C)O)C(C)C)C(=O)N[C@@H](CCC(=O)O)C(=O)N[C@@H](CO)C(=O)N[C@H](C(=O)O)[C@@H](C)O
B16: Compound 14 (peptide)
peptide: H-HSQGTFTSDYSKYLDEARAEDFVKWLEST-OH
B17: Compound 28 (peptide)
peptide: H-HSQGTFTSDYSKYLDEARAKSFVEWLEST-OH
B18: Compound 13 (peptide)
peptide: H-HSQGTFTSDYSKYLDSARAEDFVKWLES-OH
B19: Compound 18 (peptide)
peptide: H-HSQGTFTSDYSKYLDKRRAEDFVSWLEST-OH

Biological target: human glucagon receptor (human, UniProt P47871 26-477)
Sequence (P47871 26-477): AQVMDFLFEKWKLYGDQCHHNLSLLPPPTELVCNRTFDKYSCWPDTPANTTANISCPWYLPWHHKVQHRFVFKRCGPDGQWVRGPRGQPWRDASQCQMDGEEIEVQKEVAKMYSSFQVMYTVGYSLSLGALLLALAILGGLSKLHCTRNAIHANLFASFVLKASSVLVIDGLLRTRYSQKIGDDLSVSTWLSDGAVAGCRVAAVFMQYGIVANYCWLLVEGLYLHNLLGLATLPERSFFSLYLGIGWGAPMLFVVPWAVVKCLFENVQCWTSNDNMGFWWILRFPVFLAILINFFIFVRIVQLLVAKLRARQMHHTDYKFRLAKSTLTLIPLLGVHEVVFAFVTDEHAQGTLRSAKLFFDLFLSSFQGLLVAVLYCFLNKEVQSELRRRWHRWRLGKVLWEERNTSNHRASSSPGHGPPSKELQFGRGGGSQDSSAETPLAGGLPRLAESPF
Test: cell-based or functional assay

Row | Binder | GCG-R EC50 in vitro [nM] (cAMP, AlphaScreen, HEK293 cells expressing human Glucagon-R)
1 | B1 | 0.11
2 | B2 | 0.24
3 | B3 | 0.03
4 | B4 | 0.063
5 | B5 | 0.32
6 | B6 | 0.024
7 | B7 | 0.054
8 | B8 | 0.39
9 | B9 | 0.0066
10 | B10 | 0.064
11 | B11 | 0.16
12 | B12 | 0.029
13 | B13 | 0.0078
14 | B14 | 0.03
15 | B15 | 0.03
16 | B16 | 0.15
17 | B17 | 0.035
18 | B18 | 0.07
19 | B19 | 0.026

— US20240067696A1 (ZEALAND PHARMA A S, published 2024)
